Measurements taken from patent US20100077492A1 (UNIVERSITY OF MASSACHUSETTS, published 2010).

B1: ^32P-labelled XPG-HMK (human XPG with a C-terminal heart muscle kinase recognition sequence tag) (enzyme)
chain: MGVQGLWKLLECSGRQVSPEALEGKILAVDISIWLNQALKGVRDRHGNSIENPHLLTLFHRLCKLLFFRIRPIFVFDGDAPLLKKQTLVKRRQRKDLASSDSRKTTEKLLKTFLKRQAIKTAFRSKRDEALPSLTQVRRENDLYVLPPLQEEEKHSSEEEDEKEWQERMNQKQALQEEFFHNPQAIDIESEDFSSLPPEVKHEILTDMKEFTKRRRTLFEAMPEESDDFSQYQLKGLLKKNYLNQHIEHVQKEMNQQHSGHIRRQYEDEGGFLKEVESRRVVSEDTSHYILIKGIQAKTVAEVDSESLPSSSKMHGMSFDVKSSPCEKLKTEKEPDATPPSPRTLLAMQAALLGSSSEEELESENRRQARGRNAPAAVDEGSISPRTLSAIKRALDDDEDVKVCAGDDVQTGGPGAEEMRINSSTENSDEGLKVRDGKGIPFTATLASSSVNSAEEHVASTNEGREPTDSVPKEQMSLVHVGTEAFPISDESMIKDRKDRLPLESAVVRHSDAPGLPNGRELTPASPTCTNSVSKNETHAEVLEQQNELCPYESKFDSSLLSSDDETKCKPNSASEVIGPVSLQETSSIVSVPSEAVDNVENVVSFNAKEHENFLETIQEQQTTESAGQDLISIPKAVEPMEIDSEESESDGSFIEVQSVISDEELQAEFPETSKPPSEQGEEELVGTREGEAPAESESLLRDNSERDDVDGEPQEAEKDAEDSLHEWQDINLEELETLESNLLAQQNSLKAQKQQQERIAATVTGQMFLESQELLRLFGIPYIQAPMEAEAQCAILDLTDQTSGTITDDSDIWLFGARHVYRNFFNKNKFVEYYQYVDFHNQLGLDRNKLINLAYLLGSDYTEGIPTVGCVTAMEILNEFPGHGLEPLLKFSEWWHEAQKNPKIRPNPHDTKVKKKLRTLQLTPGFPNPAVAEAYLKPVVDDSKGSFLWGKPDLDKIREFCQRYFGWNRTKTDESLFPVLKQLDAQQTQLRIDSFFRLAQQEKEDAKRIKSQRLNRAVTCMLRKEKEAAASEIEAVSVAMEKEFELLDKAKGKTQKRGITNTLEESSSLKRKRLSDSKGKNTCGGFLGETCLSESSDGSSSEDAESSSLMNVQRRTAAKEPKTSASDSQNSVKEAPVKNGGATTSSSSDSDDDGGKEKMVLVTARSVFGKKRRKLRRARGRKRKTRRASV
modifications: ^32P-labeled at the heart muscle kinase (HMK) recognition tag RRASV
notes: The tagged form was used only in the far western and slot blot assays, as the labelled probe in solution; also called ^32P-labeled XPG with a heart muscle kinase (HMK) tag

Experiments:
[1] = target: B1; assay: far western: ^32P-labelled XPG-HMK probe on proteins transferred from SDS-PAGE
Experimental: (§1) For “far western” analysis, human PC4 protein (1.5 μg), human Nth1 protein (2.1 μg) and E. coli EndoIII (3 μg) were separated on SDS-PAGE (pre-cast 4-20% gel, BioRad), transferred to a PVDF membrane, and stained with Ponceau S to visualize the proteins on the membrane. The membrane was then blocked with a blocking buffer (25 mM Hepes-KOH (pH 7.7), 25 mM NaCl, 5 mM MgCl₂, 1 mM DTT, 1% nonfat milk and 0.1% NP-40) for 2 hours at 4° C. and probed overnight at 4° C. on a rocker with blocking buffer containing 150 mM KCl and ³²P-labeled XPG with a heart muscle kinase (HMK) tag. The membrane was washed with washing buffer (25 mM Hepes-KOH (pH 7.7), 25 mM NaCl, 150 mM KCl, 5 mM MgCl2, 1 mM DTT, 1% nonfat milk and 0.5% NP-40), and interactions were visualized by both phosphorimager and autoradiography. For slot-blot analysis 1 μg each of PC4, hNth1 and EndoIII were applied to a nitrocellulose membrane, and the membrane was processed as above.
(§2) Since Sub1 evidently functions in a pathway involving Rad2, we tested the possibility of direct interaction between the human PC4 and XPG proteins by “far western” analysis. To test PC4-XPG interaction, ³²P-labeled XPG was used as a probe for PC4 transferred onto a membrane from an SDS-PAGE gel. […]

[2] = target: T1, human PC4 protein (full length wild type) (human, UniProt P53999 1-127); assay: far western: ^32P-labelled XPG-HMK probe on PC4 transferred from SDS-PAGE
T1 construct: Full length wild type PC4 expressed in E. coli BL21(DE3) and purified by the methods of Ge et al; It was immobilised on the membrane, denatured after SDS-PAGE in the far western and native in the slot blot
Experimental: as §1, §2

binding result [2] | Binder | binding result [1]
– | E. coli Endo III (enzyme, UniProt P0AB83 1-211, looked up, Negative control, immobilised on the membrane) MNKAKRLEILTRLRENNPHPTTELNFSSPFELLIAVLLSAQATDVSVNKATAKLYPVANTPAAMLELGVEGVKTYIKTIGLYNSKAENIIKTCRILLEQHNGEVPEDRAALEALPGVGRKTANVVLNTAFGWPTIAVDTHIFRVCNRTQFAPGKNVEQVEEKLLKVVPAEFKVDCHHWLILHGRYTCIARKPRCGSCIIEDLCEYKEKVDI | no binding (tested: 3 µg EndoIII on the membrane)
binds | B1 | –
